Results: publication PMC11844742, “Structural basis of aquaporin-4 autoantibody binding in neuromyelitis optica” (Science Advances, 2025)
Several values for one entry are separate records, joined by “and”; a condition that tells them apart may be missing. Equal entries are not always repeated.

B1: Fab58, Fab fragment of patient-derived NMO recombinant antibody rAb58 (Fab, V domains shown)
VH: QVQLVESGGGLVQPGGSLRLSCAASGFTFRGYAMNWVRQAPGKGLEWVASISGSGSITQYADSAKGRFTITRDNSKSTLYAHVSSLRADDTAVYYCAKGDYVFDYWGQGTLVTVSS
VL: DIQMTQSPSALSASVGDTVTITCRASQSIRSWLAWYQQKPGKAPKLLIYKASDLQSGVPSRFSGSGSGTDFTLTISGLQPDDFATYYCQHYNSYPYTFGQGTKVEIR
notes: heavy chain (HC) of Fab58 in the deposited model PDB 8V91; light chain (LC) of Fab58 in the deposited model PDB 8V91; also called rAB58 Fab; source: rAb58 IgG from Expi293F (MabSelect purified), papain cleavage (Pierce Fab kit), Fc removed with Protein A agarose
B2: Fab186, Fab fragment of patient-derived NMO recombinant antibody rAb186 (Fab, V domains shown)
VH: QVQLQESGPGLVKPSQTLPLTCTVSGGYISSGSHQWGWIRQPAGKGLEWIGRIYTSGSTNYNPSLKSRVTISVDTSKNQFSLKLSSVTAADTAVYYCARVNYDLLTGRANFFDPWGQGTPVTVSS
VL: EIVLTQSPGTLSLSPGERATLSCRASQSVSSRSVAWYQQKPGQAPRLLIYGASNRATGIPDRFSGSGSGTDFTLTISRLEPEDFVVFYCQQYGSSPLTFGGGTKVEIK
notes: heavy chain (HC) of Fab186 in the deposited model PDB 8V9D; light chain (LC) of Fab186 in the deposited model PDB 8V9D; also called rAB186 Fab; source: rAb186 IgG from Expi293F (MabSelect purified), papain cleavage (Pierce Fab kit), Fc removed with Protein A agarose

Assays:
Conditions in all cases: both partners purified
[1] = target: T1, human aquaporin-4 (AQP4) isoform M1, full length, tetramer in MSP1E3D1 lipid nanodiscs (human, UniProt P55087-1); test: cryo-EM structure; AQP4 M1 in nanodiscs (0.3 uM) mixed with ~5-fold molar excess of Fab58; no symmetry imposed; 2.5 A
T1 construct: aquaporin-4, human, isoform M1, full length (residues 1 to 323); synthesized gene in pPICZ; a thrombin cleavage site lies between the tags and the protein; Homo-tetramer embedded in a nanodisc (soybean polar lipids, MSP1E3D1); for BLI the MSP 1E3D1 was biotinylated; also called AQP4 M1; M1 tetramer; not shown: 8xHis, N-terminal, kept
T1 sequence (P55087 whole entry, the tested form may be a part, canonical isoform): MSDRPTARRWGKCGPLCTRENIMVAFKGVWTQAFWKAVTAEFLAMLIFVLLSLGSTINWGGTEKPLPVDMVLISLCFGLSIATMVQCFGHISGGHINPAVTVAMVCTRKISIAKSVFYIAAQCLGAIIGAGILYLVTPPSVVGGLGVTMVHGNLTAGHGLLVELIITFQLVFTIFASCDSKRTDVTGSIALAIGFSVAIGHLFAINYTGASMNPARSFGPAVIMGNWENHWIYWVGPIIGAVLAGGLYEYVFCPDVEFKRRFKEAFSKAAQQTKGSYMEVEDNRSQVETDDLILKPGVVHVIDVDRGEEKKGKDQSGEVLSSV

[2] = target: T2, human aquaporin-4 (AQP4) isoform M1, full length, tetramer in detergent (human, UniProt P55087-1); test: cryo-EM structure; AQP4 in detergent, 18 uM, mixed with ~75 uM Fab186; ~12 uM AQP4 on grids; no symmetry imposed; 2.9 A
T2 construct: aquaporin-4, human, isoform M1, full length (residues 1 to 323); synthesized gene in pPICZ; The purification protocol says the N-terminal tag was cleaved by thrombin; also called AQP4 M1; AQP4 in detergent; source: Pichia pastoris X-33 (strain MG3), purified in DDM (Ni-NTA, thrombin cleavage, cobalt resin, SEC Superdex 200); not shown: 8xHis, N-terminal, cleaved
T2 sequence (P55087 whole entry, the tested form may be a part, canonical isoform): as above

[3] = target: T1, human aquaporin-4 (AQP4) isoform M1, …; test: cryo-EM 2D classification; AQP4 M1 in nanodiscs mixed with 30-fold molar excess of Fab186; severe orientation bias, no high-resolution map

Binder	stoichiometry N [1] [Fab per AQP4 tetramer]	stoichiometry N [2]	stoichiometry N [3] [Fab per AQP4 tetramer]
B1	1	–	–
B2	–	≤ 4 Fab per AQP4 tetramer and 3 Fab per AQP4 tetramer	4
